Test [1] deals with T1, SR344 (N-terminal 1st to 344th amino acids of soluble human IL-6R) (human, UniProt P08887 20-344, limits assumed).
T1 construct: also called recombinant soluble human IL-6 receptor; soluble human IL-6 receptor
T1 sequence (looked up): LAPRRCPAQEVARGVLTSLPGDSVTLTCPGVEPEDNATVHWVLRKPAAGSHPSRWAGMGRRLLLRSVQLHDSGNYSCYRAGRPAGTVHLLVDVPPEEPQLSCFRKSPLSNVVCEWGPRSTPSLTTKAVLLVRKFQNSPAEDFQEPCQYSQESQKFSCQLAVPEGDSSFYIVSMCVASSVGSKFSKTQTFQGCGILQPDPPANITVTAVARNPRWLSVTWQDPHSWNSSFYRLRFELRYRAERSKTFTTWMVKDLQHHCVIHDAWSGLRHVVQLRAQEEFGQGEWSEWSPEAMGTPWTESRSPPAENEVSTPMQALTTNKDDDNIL
Briefly: SPR (Biacore T100), antibody captured on Protein A/G, SR344 as analyte, 37 C.

In test [2] the target is T2, soluble GPC3 core polypeptide (human, UniProt P51654 25-563).
T2 construct: also called soluble GPC3 core protein; glypican 3 (antigen)
T2 sequence (P51654 other isoform, or with tags, fused parts or gaps limits assumed): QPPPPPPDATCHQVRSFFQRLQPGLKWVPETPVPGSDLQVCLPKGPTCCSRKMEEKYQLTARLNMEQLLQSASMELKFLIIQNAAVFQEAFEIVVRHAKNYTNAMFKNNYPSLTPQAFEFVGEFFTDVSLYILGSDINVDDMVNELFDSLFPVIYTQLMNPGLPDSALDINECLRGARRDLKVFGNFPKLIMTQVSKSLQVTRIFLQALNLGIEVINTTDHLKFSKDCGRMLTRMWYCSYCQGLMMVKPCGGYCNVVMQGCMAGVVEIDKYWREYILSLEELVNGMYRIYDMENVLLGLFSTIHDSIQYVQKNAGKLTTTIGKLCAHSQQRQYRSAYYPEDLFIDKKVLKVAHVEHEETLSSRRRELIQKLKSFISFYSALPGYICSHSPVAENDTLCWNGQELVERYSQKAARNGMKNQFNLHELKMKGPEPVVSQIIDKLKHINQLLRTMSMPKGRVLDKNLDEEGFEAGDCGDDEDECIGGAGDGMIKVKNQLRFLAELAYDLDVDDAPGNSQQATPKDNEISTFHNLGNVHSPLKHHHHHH
Kind of test: competitive ELISA, soluble GPC3 core polypeptide on the plate, competitor biotinylated GPC3-H2L2. A general note: In an ELISA, binding on a coated surface is turned into a signal by an enzyme label.

B1: RDC_23 (antibody, V domains shown)
VH: QVQLQESGPGLVRPSQTLSLTCTVSGYSITSDHAWSWVRQPPGRGLEWIGYISYSGITTYNPSLKSRVTMLRDTSKNQFSLRLSSVTAADTAVYYCARVLARITAMDYWGQGSLVTVSS
VL: DIQMTQSPSSLSASVGDRVTITCRASQDISSYLNWYQQKPGKAPKLLIYYTSRLHSGVPSRFSGSGSGTDFTFTISSLQPEDIATYYCGQGNRLPYTFGQGTKVEIK
notes: also called RDC_5H / RDC_11L
As for B1, the “fold weaker affinity for SR344 than for rhIL-6sR” value in test [1] worked out at 2 fold.

B2: GPC3_H2L2 (antibody, human IgG1, kappa, V domains shown)
VH: QVQLVQSGAEVKKPGASVKVSCKASGYTFTDYEMHWVRQAPGQGLEWMGALDPKTGDTAYSQKFKGRVTLTADKSTSTAYMELSSLTSEDTAVYYCTRFYSYTYWGQGTLVTVSS
VL: DVVMTQSPLSLPVTPGEPASISCRSSQSLVHSNRNTYLHWYLQKPGQSPQLLIYKVSNRFSGVPDRFSGSGSGTDFTLKISRVEAEDVGVYYCSQNTHVPPTFGQGTKLEIKR
As to B2, the binding result in test [2] was “binds”.

B3: GPC3_H3L3 (antibody, human IgG1, kappa, V domains shown)
VH: QVQLVQSGAEVKKPGASVTVSCKASGYTFTDYEMHWIRQPPGEGLEWIGAIDPKTGDTAYSESFQDRVTLTADKSTSTAYMELSSLTSEDTAVYYCTRFYSYTYWGQGTLVTVSS
VL: DIVMTQSPLSLPVTPGEPASISCQASESLVHSNRNTYLHWYLQKPGQSPQLLIYKVSNRFSGVPDRFSGSGSGTDFTLKISRVEAEDVGVYYCSQNTHVPPTFGQGTKVEIER
For the molecule B3, the binding result in test [2] is listed as “binds”.

For the origin of these results see patent US20250011443A1 (published 2025).
